From US20220332804A1 (CSL INNOVATION, published 2022)

Columns and labels:
Assay in all cases: SPR, KD relative to WT C2;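 further: biacore SPR at 37 °C, anti-C2 mAbs captured via immobilised goat anti-human IgG, C2 alanine or serine surface mutants as analytes, 1:1 model fitted, double-referenced sensograms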
human C2 R688A = target: T1, human C2 R688A (human, UniProt P06681 21-752)
T1 sequence: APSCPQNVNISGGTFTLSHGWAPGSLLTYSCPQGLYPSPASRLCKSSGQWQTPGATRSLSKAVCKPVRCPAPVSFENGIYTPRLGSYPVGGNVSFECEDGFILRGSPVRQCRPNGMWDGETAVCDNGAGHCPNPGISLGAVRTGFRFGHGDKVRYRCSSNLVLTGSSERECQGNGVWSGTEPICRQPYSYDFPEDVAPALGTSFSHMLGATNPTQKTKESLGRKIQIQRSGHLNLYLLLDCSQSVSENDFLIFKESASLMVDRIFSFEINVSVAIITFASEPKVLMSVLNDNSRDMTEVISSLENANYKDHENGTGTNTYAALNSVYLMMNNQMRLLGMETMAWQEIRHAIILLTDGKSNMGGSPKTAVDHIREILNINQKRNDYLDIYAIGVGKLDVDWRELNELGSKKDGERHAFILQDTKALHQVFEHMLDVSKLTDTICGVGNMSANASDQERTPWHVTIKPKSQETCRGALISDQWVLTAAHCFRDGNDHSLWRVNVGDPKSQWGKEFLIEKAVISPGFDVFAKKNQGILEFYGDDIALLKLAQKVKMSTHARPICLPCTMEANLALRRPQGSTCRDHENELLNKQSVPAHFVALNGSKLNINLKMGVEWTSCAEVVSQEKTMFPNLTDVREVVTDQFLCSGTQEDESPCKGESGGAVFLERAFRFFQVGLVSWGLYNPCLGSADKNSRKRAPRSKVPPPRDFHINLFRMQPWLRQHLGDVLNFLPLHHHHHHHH

human C2 R719A = target: T2, human C2 R719A (human, UniProt P06681 21-752)
T2 sequence: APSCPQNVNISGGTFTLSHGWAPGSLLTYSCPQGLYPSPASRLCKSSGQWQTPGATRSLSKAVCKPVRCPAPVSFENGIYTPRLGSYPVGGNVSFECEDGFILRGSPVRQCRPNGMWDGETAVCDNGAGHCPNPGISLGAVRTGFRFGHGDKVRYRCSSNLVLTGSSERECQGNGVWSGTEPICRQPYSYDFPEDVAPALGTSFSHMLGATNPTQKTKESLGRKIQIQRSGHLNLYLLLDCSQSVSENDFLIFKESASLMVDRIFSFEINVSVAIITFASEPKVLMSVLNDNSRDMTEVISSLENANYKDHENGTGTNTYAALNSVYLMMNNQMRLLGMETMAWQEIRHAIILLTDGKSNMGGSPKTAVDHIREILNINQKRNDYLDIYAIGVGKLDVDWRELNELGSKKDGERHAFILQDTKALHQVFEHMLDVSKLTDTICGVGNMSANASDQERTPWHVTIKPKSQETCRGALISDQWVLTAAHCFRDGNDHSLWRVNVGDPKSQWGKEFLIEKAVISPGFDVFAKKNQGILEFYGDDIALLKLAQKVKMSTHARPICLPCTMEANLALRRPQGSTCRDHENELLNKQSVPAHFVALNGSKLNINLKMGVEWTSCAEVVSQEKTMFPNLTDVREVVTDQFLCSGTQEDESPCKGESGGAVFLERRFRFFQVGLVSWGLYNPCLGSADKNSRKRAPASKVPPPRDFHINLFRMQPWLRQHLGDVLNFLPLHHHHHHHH

human C2 T483A = target: T3, human C2 T483A (human, UniProt P06681 21-752)
T3 sequence: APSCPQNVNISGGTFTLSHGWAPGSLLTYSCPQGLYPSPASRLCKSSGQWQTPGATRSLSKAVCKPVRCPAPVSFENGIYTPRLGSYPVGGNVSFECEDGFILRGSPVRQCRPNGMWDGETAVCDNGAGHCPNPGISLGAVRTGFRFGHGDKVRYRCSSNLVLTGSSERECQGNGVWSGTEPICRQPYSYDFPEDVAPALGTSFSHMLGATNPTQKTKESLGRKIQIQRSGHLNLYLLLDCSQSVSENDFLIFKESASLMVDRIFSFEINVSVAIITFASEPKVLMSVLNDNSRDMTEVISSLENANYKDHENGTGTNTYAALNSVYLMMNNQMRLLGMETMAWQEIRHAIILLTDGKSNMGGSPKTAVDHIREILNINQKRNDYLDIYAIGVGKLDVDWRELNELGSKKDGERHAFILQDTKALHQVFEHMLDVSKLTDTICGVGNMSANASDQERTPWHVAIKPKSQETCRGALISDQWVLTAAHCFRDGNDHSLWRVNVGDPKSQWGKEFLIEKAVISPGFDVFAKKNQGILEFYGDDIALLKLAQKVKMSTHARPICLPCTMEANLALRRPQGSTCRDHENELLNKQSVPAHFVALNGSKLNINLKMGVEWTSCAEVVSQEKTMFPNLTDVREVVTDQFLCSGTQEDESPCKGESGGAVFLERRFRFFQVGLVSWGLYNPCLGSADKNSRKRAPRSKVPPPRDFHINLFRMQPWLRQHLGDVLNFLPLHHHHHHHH

human C2 F437A = target: T4, human C2 F437A (human, UniProt P06681 21-752)
T4 sequence: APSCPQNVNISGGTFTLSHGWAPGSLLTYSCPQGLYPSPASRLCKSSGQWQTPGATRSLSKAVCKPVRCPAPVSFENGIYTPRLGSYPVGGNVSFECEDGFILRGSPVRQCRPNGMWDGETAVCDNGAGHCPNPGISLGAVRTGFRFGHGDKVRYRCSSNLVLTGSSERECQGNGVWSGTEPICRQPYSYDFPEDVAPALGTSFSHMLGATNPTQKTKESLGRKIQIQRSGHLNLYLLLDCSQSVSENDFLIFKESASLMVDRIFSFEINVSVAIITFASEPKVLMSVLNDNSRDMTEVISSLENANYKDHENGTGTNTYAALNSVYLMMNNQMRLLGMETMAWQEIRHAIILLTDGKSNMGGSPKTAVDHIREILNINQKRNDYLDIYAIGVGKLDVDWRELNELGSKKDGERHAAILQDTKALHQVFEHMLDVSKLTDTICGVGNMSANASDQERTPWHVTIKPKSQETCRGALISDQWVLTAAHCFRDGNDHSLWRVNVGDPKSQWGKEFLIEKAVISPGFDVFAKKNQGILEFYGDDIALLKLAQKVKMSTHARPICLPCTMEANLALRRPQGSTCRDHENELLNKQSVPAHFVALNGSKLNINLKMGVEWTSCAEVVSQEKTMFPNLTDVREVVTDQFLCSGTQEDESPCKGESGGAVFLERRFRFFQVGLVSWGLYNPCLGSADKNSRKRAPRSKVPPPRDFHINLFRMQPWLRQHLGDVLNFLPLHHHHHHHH

B1: RF16-226 (antibody, human IgG4 S228P, lambda)
heavy: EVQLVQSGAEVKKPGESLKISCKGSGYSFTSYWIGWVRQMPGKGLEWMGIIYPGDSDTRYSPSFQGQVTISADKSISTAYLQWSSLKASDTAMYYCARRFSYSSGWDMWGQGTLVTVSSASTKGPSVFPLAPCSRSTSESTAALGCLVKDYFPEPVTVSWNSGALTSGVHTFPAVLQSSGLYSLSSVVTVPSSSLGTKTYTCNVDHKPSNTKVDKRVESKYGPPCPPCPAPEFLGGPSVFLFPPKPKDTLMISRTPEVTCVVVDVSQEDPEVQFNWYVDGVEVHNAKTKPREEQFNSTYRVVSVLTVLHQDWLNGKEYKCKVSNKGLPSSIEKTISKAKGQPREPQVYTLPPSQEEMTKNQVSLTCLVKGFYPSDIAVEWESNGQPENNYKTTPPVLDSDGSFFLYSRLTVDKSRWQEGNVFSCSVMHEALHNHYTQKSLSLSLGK
light: SYELTQPPSVSVSPGQTARITCSGDALTSKYVAWYQQKSGLAPLLVIYEDTRRPSGIPAKFSGSSSGSVATLTISGAHGDDEADYYCYSTDASGHQRVFGGGTKLTVLSQPKAAPSVTLFPPSSEELQANKATLVCLISDFYPGAVTVAWKADGSPVKAGVETTKPSKQSNNKYAASSYLSLTPEQWKSHRSYSCQVTHEGSTVEKTVAPTECS
notes: pH-dependent anti-C2 antibody from a phage display library; also called WT
Fold diff (human C2 R688A): 3 fold | Fold diff (human C2 R719A): 1 fold | Fold diff (human C2 T483A): 1 fold | Fold diff (human C2 F437A): 26 fold
